Laboratory results as given in patent publication US20220177604A1 (ARGENX, published 2022).

Key:
[1] = biological target: T1, human immunoglobulin E (hIgE) (human, UniProt P01854-1 1-428); assay: competition ELISA
T1 construct: also called human IgE; Native IgE (Abcam)
Protocol: (§1) The IC50 values of each compound were calculated with a non-linear regression (log(agonist) vs. response Variable slope (four parameters)).

[2] = biological target: T1, human immunoglobulin E (hIgE); assay: SPR competition, hIgE + mAb over hFcεRIα chip, pH 6 (text: pH 5.5)
Protocol: (§2) For this purpose, a competition approach was set-up. […] The assay was performed in HBS-EP pH7.4 or HBS-EP pH 5.5. Raw data were analyzed via BIA evaluation software with a blank subtraction (2-1). […] The IC50 values of each compound were calculated with a non-linear regression (log(agonist) vs. response Variable slope (four parameters)).

[3] = biological target: T1, human immunoglobulin E (hIgE); assay: competition ELISA, biotin-hIgE to coated hFcεRIα, pH 7.4
Protocol: as §1

[4] = biological target: T1, human immunoglobulin E (hIgE); assay: competition ELISA, biotin-hIgE to coated hFcεRIα, pH 6
Protocol: as §1

[5] = biological target: T1, human immunoglobulin E (hIgE); assay: SPR competition, hIgE over hFcεRIα chip, pH 7.4
Protocol: (§3) The assay was performed in HBS-EP pH7.4 or HBS-EP pH 5.5. Raw data were analyzed via BIA evaluation software with a blank subtraction (2-1). […] The IC50 values of each compound were calculated with a non-linear regression (log(agonist) vs. response Variable slope (four parameters)).
(§4) Raw data were analyzed via BIA evaluation software with a blank subtraction (2-1). […] The IC50 values of each compound, calculated with a non-linear regression (log(agonist) vs. response Variable slope (four parameters)).

[6] = biological target: T1, human immunoglobulin E (hIgE); assay: SPR competition, hIgE + mAb over hFcεRIα chip, pH 7.4
Protocol: as §2

[7] = biological target: T1, human immunoglobulin E (hIgE); assay: SPR competition
Protocol: as §2

[8] = biological target: T1, human immunoglobulin E (hIgE); assay: SPR competition, hIgE over hFcεRIα chip, pH 5.5
Protocol: as §3, §4

[9] = biological target: T1, human immunoglobulin E (hIgE); assay: SPR competition; remark: listed apart in the source
[10] = biological target: T2, recombinant Motavizumab human IgE (rMota-hIgE) (human, UniProt P01854 1-428); assay: ELISA: rMota-hIgE captured on coated RSV-F, washes at pH 7.4, anti-human Fc-HRP; EC50 unit inferred, x axis in pM
T2 construct: also called Recombinant IgE (argenx)
Protocol: (§5) Briefly a Maxisorp plate was coated with recombinant human respiratory syncytial virus protein F (RSV-F) (0.5 μg/mL), then blocked with PBS with 3% BSA and 0.05% Tween. […] After several washing steps at pH 7.4 or pH 5.5, detection of the bound mAbs was carried out with an anti-human Fc-HRP antibody.

[11] = biological target: T2, recombinant Motavizumab human IgE …; assay: ELISA: rMota-hIgE captured on coated RSV-F, washes at pH 5.5, anti-human Fc-HRP; EC50 unit inferred, x axis in pM; curve reaches only OD450 about 0.85 at about 670 pM
Protocol: as §5

[12] = biological target: T2, recombinant Motavizumab human IgE …; assay: ELISA: rMota-hIgE captured on coated RSV-F, washes at pH 7.4, anti-human Fc-HRP; EC50 unit inferred, x axis in pM; remark: listed apart in the source
Protocol: as §5

[13] = biological target: T2, recombinant Motavizumab human IgE …; assay: ELISA: rMota-hIgE captured on coated RSV-F, washes at pH 5.5, anti-human Fc-HRP; EC50 unit inferred, x axis in pM
Protocol: as §5

[14] = biological target: T2, recombinant Motavizumab human IgE …; assay: as above; remark: listed apart in the source
Protocol: as §5

[15] = biological target: T1, human immunoglobulin E (hIgE); assay: SPR (Biacore) on hIgE
Protocol: The ratio of KD measured at pH 5.5 versus KD measured at pH 7.4 was calculated for each of the CL-2C antibodies.

[16] = biological target: T1, human immunoglobulin E (hIgE); assay: competition ELISA, hIgE to hFcεRIα
[17] = biological target: T2, recombinant Motavizumab human IgE …; assay: hIgE binding ELISA
Protocol: The ratio of OD450 measured at pH 7.4 versus OD450 measured at pH 6 was calculated for each of the CL-2C antibodies.

[18] = biological target: T2, recombinant Motavizumab human IgE …; assay: hIgE binding ELISA, pH 5.5
Protocol: as §5

[19] = biological target: T2, recombinant Motavizumab human IgE …; assay: hIgE binding ELISA, pH 7.4
Protocol: as §5

[20] = biological target: T2, recombinant Motavizumab human IgE …; assay: hIgE binding ELISA; remark: listed apart in the source
Protocol: as §5

T2 sequence (P01854 other isoform, or with tags, fused parts or gaps limits assumed, form in doubt): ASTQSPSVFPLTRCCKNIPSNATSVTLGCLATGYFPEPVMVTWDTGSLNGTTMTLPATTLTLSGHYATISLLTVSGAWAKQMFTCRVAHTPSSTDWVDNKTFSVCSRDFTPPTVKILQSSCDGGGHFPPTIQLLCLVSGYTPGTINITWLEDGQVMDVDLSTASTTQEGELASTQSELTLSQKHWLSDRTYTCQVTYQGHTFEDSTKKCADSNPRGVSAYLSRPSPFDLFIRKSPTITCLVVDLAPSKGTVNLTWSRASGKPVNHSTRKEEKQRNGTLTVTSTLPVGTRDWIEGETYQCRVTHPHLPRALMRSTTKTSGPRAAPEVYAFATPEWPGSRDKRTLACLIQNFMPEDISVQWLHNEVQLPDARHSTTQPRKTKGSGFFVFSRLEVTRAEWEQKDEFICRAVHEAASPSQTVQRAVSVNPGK
T1 sequence (P01854 whole entry): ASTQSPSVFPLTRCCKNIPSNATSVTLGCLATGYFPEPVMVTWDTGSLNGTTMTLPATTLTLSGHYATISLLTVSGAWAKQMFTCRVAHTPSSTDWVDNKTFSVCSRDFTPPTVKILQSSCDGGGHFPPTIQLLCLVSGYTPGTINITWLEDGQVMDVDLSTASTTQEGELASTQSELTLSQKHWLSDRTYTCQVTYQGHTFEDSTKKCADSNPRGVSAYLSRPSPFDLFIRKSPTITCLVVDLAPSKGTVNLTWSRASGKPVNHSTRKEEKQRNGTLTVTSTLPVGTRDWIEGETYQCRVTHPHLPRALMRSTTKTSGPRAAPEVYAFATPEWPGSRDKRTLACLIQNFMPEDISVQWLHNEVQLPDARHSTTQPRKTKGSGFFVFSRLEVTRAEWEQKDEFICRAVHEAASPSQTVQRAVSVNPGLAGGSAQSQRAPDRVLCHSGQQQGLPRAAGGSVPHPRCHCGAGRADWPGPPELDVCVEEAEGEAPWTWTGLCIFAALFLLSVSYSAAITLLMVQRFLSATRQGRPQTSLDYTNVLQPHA

B1: 3D1 human IgG1 mAb (antibody, V domains shown)
VH: QLQVVESGGGLVQPGGSLRLSCAASGFTFSSYYMSWVRQAPGKGLEWVSSIYSDGRGSKTFYADSVKGRFTISRDNAKNTLYLQMNSLKSEDTAVYFCAKDLLVAARGSMDYWGQGTQVTVSS
VL: NFMLTQPSAVSVSLEQTARITCQGGTLGSYGAHWYQQKPGQAPVLLIYGDNSRPSGIPERFSGTRSGGTATLTISGAQAEDEADYYCQSFDYSGNAVFGGGTHLTVL
notes: human IgG1 and human light chain constant domains; also called clone 3D1; WT 3D1
Ratio pH 6/7.4 (IC50) [1]: 1.3
IC50 [2]: 4.44 nM
IC50 [3]: 90.3 nM
IC50 [4]: 118 nM
IC50 [5]: 1.36 µg/mL
IC50 [6]: 5.31 nM
Ratio pH 6/7.4 (IC50) [7]: 0.8
IC50 [8]: 11.7 µg/mL
ratio between IC50 at pH5.5 and pH 7.4 [9]: 8.6

B2: 18E2His2-hIgG1-WT (antibody, V domains shown)
VH: QLQLVESGGGLVQPGGSLRLSCAASGFTFSSYVMHWVRQAPGKGLEWVSSIYHDGSHTYYADFVKGRFTISRDNAKNTLYLQMNSLKSEDTAVYYCASGTSYSGSYYYTDPFFGSWGQGTQVTVSS
VL: NFMLTQPSALSVTLGQTARITCQGDRLGSRYIHWYQQKPPQAPVLVIHDDDRRPSGIPERFSGSSSGGTATLTISGAQAEDDGDYYCQSADSSGNPVFGGGTHLTVL
EC50 [10]: 0.365 nM
EC50 [11]: ~4210 nM

B3: 13E4-hIgG1-ABDEG (antibody, V domains shown)
VH: ELQLVESGGGLVQPGGSLRLSCAASGFTFSSYVMSWVRQAPGKGLEWVSSIYHDGSHTYYADFVKGRFTISRDNAKNTLYLQMNSLKSEDTAVYYCASGTSYSGSYYYTDPFFGSWGQGTQVTVSS
VL: HSAVTQPSALSVTLGQTAKITCQGGSLGSNYAYWYQQKPGQAPVLVIYDDDSRPSGIPERFSGSSSGGTATLTISGAQAEDEGDYYCQSADSNGNAVFGGGTHLTVL
notes: human IgG1 heavy chain with ABDEG mutations (pUPEX32a); also called 13E4-ABDEG
EC50 [12]: 0.11 nM
EC50 [13]: 0.122 nM

B4: 18E2His2-hIgG1-ABDEG (antibody, V domains shown)
VH: QLQLVESGGGLVQPGGSLRLSCAASGFTFSSYVMHWVRQAPGKGLEWVSSIYHDGSHTYYADFVKGRFTISRDNAKNTLYLQMNSLKSEDTAVYYCASGTSYSGSYYYTDPFFGSWGQGTQVTVSS
VL: NFMLTQPSALSVTLGQTARITCQGDRLGSRYIHWYQQKPPQAPVLVIHDDDRRPSGIPERFSGSSSGGTATLTISGAQAEDDGDYYCQSADSSGNPVFGGGTHLTVL
notes: human IgG1 heavy chain with ABDEG mutations (pUPEX32a); also called 18E2His2-ABDEG
EC50 [10]: 0.121 nM
EC50 [14]: 0.616 nM

B5: CL-2C mAb 37 (antibody, V domains shown)
VH: QVQLVQSGAEVMKPGSSVKVSCKASGYTFSWYHLEWVRQAPGHGLEWMGEIDPGTFTTNYNEKFKARVTFTADTSTSTAYMELSSLRSEDTAVYYCARFSHFSGSNHDYFDYWGQGTLVTVSS
VL: EIVMTQSPATLSVSPGERATLSCRASQSIGTNIHWYQQKPGQAPRLLIYYASESISGIPARFSGSGSGTEFTLTISSLQSEDFAVYYCQQSWSWPTTFGGGTKVEIK
notes: also called VKWT + VH33H100CH
KD Ratio pH 5.5/pH 7.4 [15]: 11.1
IC50 [16]: 0.483 nM
Ratio OD450 pH 7.4/pH 6 [17]: 10.3
EC50 [18]: 0.0373 µg/mL
EC50 [19]: 0.0149 µg/mL
Ratio EC50 pH 5.5/7.4 [20]: 2.5
Ratio EC50 pH 7.4/5.5 [20]: 0.4
